Test system: HIV-1 VLPs
Test: HIV-1 VLP release from cells expressing Tetherin constructs (Western blot, % VLP release)
Format: cell-based
Conditions: Tetherin expressed alone, no anti-Tetherin; FIG. 9B

B1: full-length human Tetherin: human cellular protein that tethers newly budded HIV particles at the cell surface and restricts virus release (protein)
chain: MASTSYDYCRVPMEDGDKRCKLLLGIGILVLLIIVILGVPLIIFTIKANSEACRDGLRAVMECRNVTHLLQQELTEAQKGFQDVEAQAATCNHTVMALMASLDAEKAQGQKKVEELEGEITTLNHKLQDASAEVERLRRENQVLSVRIADKKYYPSSQDSS
Q: For B1, which “reduction of release of Virus-Like Particles (VLPs)” value is on record?
A: about 95%

— US20120196760A1, “METHODS AND COMPOSITIONS FOR IDENTIFYING MODULATORS OF ANTI-TETHERIN ACTIVITY TO INHIBIT P[…] VIRUSES” (CHILDRENS HOSPITAL LOS ANGELES, priority 2008, published 2012)
